Test results taken from patent US20240294593A1 (Genentech, published 2024).

How the values were obtained:
human PD-1-His [1] = molecular target: T1, human PD-1-His (human, UniProt Q15116 25-167, limits assumed); assay: Octet (BLI), AHC capture of the bivalent mAb, PD-1 in solution
T1 construct: Antigen of the Octet assays; not shown: His tag

human PD-1-His [2] = molecular target: T1, human PD-1-His; assay: Octet (BLI), AHC biosensors capture the bivalent mAb, dipped into multiple concentrations of PD-1; KDapp per legend
human PD-1-His [3] = molecular target: T1, human PD-1-His; assay: Octet

T1 sequence (Q15116 25-167 limits assumed): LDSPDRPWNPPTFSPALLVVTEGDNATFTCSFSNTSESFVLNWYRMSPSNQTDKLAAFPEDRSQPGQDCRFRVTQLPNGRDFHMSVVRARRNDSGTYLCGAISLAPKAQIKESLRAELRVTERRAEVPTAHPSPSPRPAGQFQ

Binder	koff (human PD-1-His [1]) [s⁻¹]	kon (human PD-1-His [1]) [M⁻¹ s⁻¹]	Kd (human PD-1-His [2]) [µM]	Kd (human PD-1-His [3]) [µM]	koff (human PD-1-His [3]) [s⁻¹]	kon (human PD-1-His [3]) [M⁻¹ s⁻¹]
H1.193_L1.1 (XENP32809) (antibody, human IgG1, kappa, V domains shown, VH substitution L110Q/V111L/W112F (Xencor #); L98Q/V99L/W100F (Kabat); also called mAb C[PD1]_H1.193_L1.1_IgG1_PVA_/S267K) VH: EVQLVESGGGLVQPGGSLRLSCAASGFTFSSFGMHWVRQAPGKGLEWVSYISSGSSIIYYADSVKGRFTISRDNAKNSLYLQMNSLRAEDTAVYYCARGGRQLFSPDYWGQGTLVTVSS VL: DIVMTQSPDSLAVSLGERATINCKSSQSLLHSGNQKNYLTWYQQKPGQPPKLLIYWASTRESGVPDRFTGSGSGTDFTLTISSLQAEDVAVYYCQNDYSYPFTFGSGTKLEIKR	0.00391	116000	0.0338			
H1.199_L1.1 (XENP32815) (antibody, human IgG1, kappa, V domains shown, VH substitution V111I/W112F/P114S (Xencor #); V99I/W100F/P100bS (Kabat); also called mAb C[PD1]_H1.199_L1.1_IgG1_PVA_/S267K) VH: EVQLVESGGGLVQPGGSLRLSCAASGFTFSSFGMHWVRQAPGKGLEWVSYISSGSSIIYYADSVKGRFTISRDNAKNSLYLQMNSLRAEDTAVYYCARGGRLIFSSDYWGQGTLVTVSS VL: DIVMTQSPDSLAVSLGERATINCKSSQSLLHSGNQKNYLTWYQQKPGQPPKLLIYWASTRESGVPDRFTGSGSGTDFTLTISSLQAEDVAVYYCQNDYSYPFTFGSGTKLEIKR	0.00155	99700	0.0155			
H1.196_L1.1 (XENP32812) (antibody, human IgG1, kappa, V domains shown, VH substitution V111F/W112F (Xencor #); V99F/W100F (Kabat); also called mAb C[PD1]_H1.196_L1.1_IgG1_PVA_/S267K) VH: EVQLVESGGGLVQPGGSLRLSCAASGFTFSSFGMHWVRQAPGKGLEWVSYISSGSSIIYYADSVKGRFTISRDNAKNSLYLQMNSLRAEDTAVYYCARGGRLFFSPDYWGQGTLVTVSS VL: DIVMTQSPDSLAVSLGERATINCKSSQSLLHSGNQKNYLTWYQQKPGQPPKLLIYWASTRESGVPDRFTGSGSGTDFTLTISSLQAEDVAVYYCQNDYSYPFTFGSGTKLEIKR	0.00475	106000	0.0448			
H1.195_L1.1 (XENP32811) (antibody, human IgG1, kappa, V domains shown, VH substitution L110Q/W112F (Xencor #); L98Q/W100F (Kabat); also called mAb C[PD1]_H1.195_L1.1_IgG1_PVA_/S267K) VH: EVQLVESGGGLVQPGGSLRLSCAASGFTFSSFGMHWVRQAPGKGLEWVSYISSGSSIIYYADSVKGRFTISRDNAKNSLYLQMNSLRAEDTAVYYCARGGRQVFSPDYWGQGTLVTVSS VL: DIVMTQSPDSLAVSLGERATINCKSSQSLLHSGNQKNYLTWYQQKPGQPPKLLIYWASTRESGVPDRFTGSGSGTDFTLTISSLQAEDVAVYYCQNDYSYPFTFGSGTKLEIKR	0.00436	104000	0.0419			
H1.197_L1.1 (XENP32813) (antibody, human IgG1, kappa, V domains shown, VH substitution V111L/W112F (Xencor #); V99L/W100F (Kabat); also called mAb C[PD1]_H1.197_L1.1_IgG1_PVA_/S267K) VH: EVQLVESGGGLVQPGGSLRLSCAASGFTFSSFGMHWVRQAPGKGLEWVSYISSGSSIIYYADSVKGRFTISRDNAKNSLYLQMNSLRAEDTAVYYCARGGRLLFSPDYWGQGTLVTVSS VL: DIVMTQSPDSLAVSLGERATINCKSSQSLLHSGNQKNYLTWYQQKPGQPPKLLIYWASTRESGVPDRFTGSGSGTDFTLTISSLQAEDVAVYYCQNDYSYPFTFGSGTKLEIKR	0.00436	123000	0.0354			

Results, then the binder that gave them:

koff (human PD-1-His [1]) [s⁻¹]	kon (human PD-1-His [1]) [M⁻¹ s⁻¹]	Kd (human PD-1-His [2]) [µM]	Kd (human PD-1-His [3]) [µM]	koff (human PD-1-His [3]) [s⁻¹]	kon (human PD-1-His [3]) [M⁻¹ s⁻¹]	Binder
0.00505	148000	0.0342				H1.206_L1.1 (XENP32822) (antibody, human IgG1, kappa, V domains shown, VH substitution W112L (Xencor #) but W100F in the Kabat column: the two columns disagree; also called mAb C[PD1]_H1.206_L1.1_IgG1_PVA_/S267K) VH: EVQLVESGGGLVQPGGSLRLSCAASGFTFSSFGMHWVRQAPGKGLEWVSYISSGSSIIYYADSVKGRFTISRDNAKNSLYLQMNSLRAEDTAVYYCARGGRLVLSPDYWGQGTLVTVSS VL: DIVMTQSPDSLAVSLGERATINCKSSQSLLHSGNQKNYLTWYQQKPGQPPKLLIYWASTRESGVPDRFTGSGSGTDFTLTISSLQAEDVAVYYCQNDYSYPFTFGSGTKLEIKR
0.00509	77700	0.0655				H1.208_L1.1 (XENP32824) (antibody, human IgG1, kappa, V domains shown, VH substitution L110S/W112F (Xencor #); L98S/SW100F (Kabat); also called mAb C[PD1]_H1.208_L1.1_IgG1_PVA_/S267K) VH: EVQLVESGGGLVQPGGSLRLSCAASGFTFSSFGMHWVRQAPGKGLEWVSYISSGSSIIYYADSVKGRFTISRDNAKNSLYLQMNSLRAEDTAVYYCARGGRSVFSPDYWGQGTLVTVSS VL: DIVMTQSPDSLAVSLGERATINCKSSQSLLHSGNQKNYLTWYQQKPGQPPKLLIYWASTRESGVPDRFTGSGSGTDFTLTISSLQAEDVAVYYCQNDYSYPFTFGSGTKLEIKR
0.00469	152000	0.0308				H1.212_L1.1 (XENP32828) (antibody, human IgG1, kappa, V domains shown, VH substitution R109T/L110K/W112F (Xencor #); R97T/L98K/W100F (Kabat); also called mAb C[PD1]_H1.212_L1.1_IgG1_PVA_/S267K) VH: EVQLVESGGGLVQPGGSLRLSCAASGFTFSSFGMHWVRQAPGKGLEWVSYISSGSSIIYYADSVKGRFTISRDNAKNSLYLQMNSLRAEDTAVYYCARGGTKVFSPDYWGQGTLVTVSS VL: DIVMTQSPDSLAVSLGERATINCKSSQSLLHSGNQKNYLTWYQQKPGQPPKLLIYWASTRESGVPDRFTGSGSGTDFTLTISSLQAEDVAVYYCQNDYSYPFTFGSGTKLEIKR
			0.0555	0.00741	133000	H1_L1.127 (antibody, V domains shown, also called VL-Y100H; Kabat 94) VH: EVQLVESGGGLVQPGGSLRLSCAASGFTFSSFGMHWVRQAPGKGLEWVSYISSGSSIIYYADSVKGRFTISRDNAKNSLYLQMNSLRAEDTAVYYCARGGRLVWSPDYWGQGTLVTVSS VL: DIVMTQSPDSLAVSLGERATINCKSSQSLLNSGNQKNYLTWYQQKPGQPPKLLIYWASTRESGVPDRFTGSGSGTDFTLTISSLQAEDVAVYYCQNDYSHPFTFGSGTKLEIKR
